“Also recorded” adds a separate entry of the source.
What was measured:
[1] = Osmolality of 21B12 formulations; format: physicochemical
Source text: In certain embodiments, the pharmaceutical formulation is isotonic with an osmolality ranging from between about 250 to about 350 miliosmol/kg, e.g., about 250 mOsm/kg, about 260 mOsm/kg, about 270 mOsm/kg, about 280 mOsm/kg, about 290 mOsm/kg, about 300 mOsm/kg, about 310 mOsm/kg, about 320 mOsm/kg, about 330 mOsm/kg, about 340 mOsm/kg, or about 350 mOsm/kg, and including all values in between. As used herein, “osmolality” is the measure of the ratio of solutes to volume fluid. In other words, it is the number of molecules and ions (or molecules) per kilogram of a solution. Osmolality may be measured on an analytical instrument called an osmometer, such as Advanced Instruments 2020 Multi-sample Osmometer, Norwood, Mass. The Advanced Instrumetns 2020 Multi-sample Osmometer measures osmolality by using the Freezing Point Depression method. The higher the osmolytes in a solution, the temperature in which it will freeze drops. Osmolality may also be measured using any other methods and in any other units known in the art such as linear extrapolation.

[2] = tested on: human patient exhibiting a Cholesterol Related Disorder; assay: Treatment of cholesterol related disorders (Example 16); format: in vivo; conditions: therapeutically effective amount
Source text: At periodic times during the treatment, the patient is monitored to determine whether the symptoms of the disorder have subsided.

[3] = tested on: human patient at risk of developing coronary heart disease; assay: Prevention of coronary heart disease (Example 18); format: in vivo; conditions: alone, concurrently or sequentially with a statin
Source text: A human patient at risk of developing coronary heart disease is identified. […] At periodic times during the treatment, the human patient is monitored to determine whether the patient's total serum cholesterol level changes.

[4] = tested on: subjects with hyperlipidemia on stable doses of a statin; assay: Phase 1b ascending multiple dose study on stable statin (Example 21); format: in vivo
Method: The study had seven cohorts. […] Cohort 6 was conducted in hypercholesterolemic subjects on high doses of a statin (atorvastatin 80 mg or rosuvastatin 40 mg).

[5] = target: D374Y PCSK9 binding to LDLR (Homo sapiens, UniProt Q8NBP7, D374Y); assay: Large scale receptor ligand blocking screen and functional classification of ABPs; conditions: functional assays of the screening
Method: To screen for the antibodies that block PCSK9 binding to LDLR an assay was developed using the D374Y PCSK9 mutant. […] The following protocol was employed in the receptor ligand blocking screen: Costar 3702 medium binding 384 well plates (Corning Life Sciences) were employed in the screen. The plates were coated with goat anti-LDLR (R&D Cat #AF2148) at 2 μg/ml in 1×PBS/0.05% Azide at a volume of 40 μl/well. The plates were incubated at 4° C. overnight. The plates were then washed using a Titertek plate washer (Titertek, Huntsville, Ala.). A 3-cycle wash was performed. The plates were blocked with 90 μl of 1×PBS/1% milk and incubated approximately 30 minutes at room temperature. The plates were then washed using the Titertek plate washer. A 3-cycle wash was performed. The capture sample was LDLR (R&D, Cat #2148LD/CF), and was added at 0.4 μg/ml in 1×PBS/1% milk/10 mM Ca^2+ at a volume of 40 μl/well. The plates were then incubated for 1 hour and 10 minutes at room temperature. Contemporaneously, 20 ng/ml of biotinylated human D374Y PCSK9 was incubated with 15 micro liters of hybridoma exhaust supernatant in Nunc polypropylene plates and the exhaust supernatant concentration was diluted 1:5. The plates were then pre-incubated for about 1 hour and 30 minutes at room temperature. Next, the plates were washed using the Titertek plate washer operated using a 3-cycle wash. 50 μl/well of the pre-incubated mixture was transferred onto the LDLR coated ELISA plates and incubated for 1 hour at room temperature. To detect LDLR-bound b-PCSK9, 40 μl/well streptavidin HRP at 500 ng/ml in assay diluent was added to the plates. The plates were incubated for 1 hour at room temperature. The plates were again washed using a Titertek plate washer. A 3-cycle wash was performed. Finally, 40 μl/well of One-step TMB (Neogen, Lexington, Ky.) was added to the plate and was quenched with 40 μl/well of 1N hydrochloric acid after 30 minutes at room temperature. OD's were read immediately at 450 nm using a Titertek plate reader.
The receptor ligand assay was then repeated using the mutant enzyme on the 384 member subset of neutralizers identified in the first large scale receptor ligand inhibition assay. The same protocol was employed in the screen of the 384 member blocker subset assay as was done in the large scale receptor ligand blocking screen.
Limiting dilution was used to isolate a manageable number of clones from each line. […] The isolated clones were each expanded in 50-100 ml of hybridoma media and allowed to grow to exhaustion, (i.e., less than about 10% cell viability). The concentration and potency of the antibodies to PCSK9 in the supernatants of those cultures were determined by ELISA and by in vitro functional testing, as described herein.

[6] = cohort 6, high-dose statins, 140 mg SC Q2W 3 times

B1: 21B12: human anti-PCSK9 monoclonal antibody; light/heavy variable region SEQ ID NO 23/49 (antibody, listed as Homo sapiens, V domains shown)
VH: QVQLVQSGAEVKKPGASVKVSCKASGYTLTSYGISWVRQAPGQGLEWMGWVSFYNGNTNYAQKLQGRGTMTTDPSTSTAYMELRSLRSDDTAVYYCARGYGMDVWGQGTTVTVSS
VL: QSALTQPASVSGSPGQSITISCTGTSSDVGGYNSVSWYQQHPGKAPKLMIYEVSNRPSGVSNRFSGSKSGNTASLTISGLQAEDEADYYCNSYTSTSMVFGGGTKLTVL
Osmolality (mOsmol/kg) ([1]; 21B12 73 mg/mL, 10 mM Na acetate, pH 5.2 +3% proline): 253 mOsmol/kg
Osmolality (mOsmol/kg) ([1]; 21B12 76 mg/mL, 10 mM Na acetate, pH 5.2): 53 mOsmol/kg
Osmolality (mOsmol/kg) ([1]; 21B12 116 mg/mL, 10 mM sodium acetate, pH 4.8, 50 mM methionine + 2% benzyl alcohol): 329 mOsmol/kg
Osmolality (mOsmol/kg) ([1]; 21B12 116 mg/mL, 10 mM sodium acetate, pH 4.8, 150 mM arginine): 241 mOsmol/kg
Osmolality (mOsmol/kg) ([1]; 21B12 116 mg/mL, 10 mM sodium acetate, pH 4.8, 1.5% proline + 1% benzyl alcohol): 277 mOsmol/kg
Osmolality (mOsmol/kg) ([1]; 21B12 116 mg/mL, 10 mM sodium acetate, pH 4.8, 2% proline + 1% benzyl alcohol): 313 mOsmol/kg
Osmolality (mOsmol/kg) ([1]; 21B12 116 mg/mL, 10 mM sodium acetate, pH 4.8, no excipients): 72 mOsmol/kg
Osmolality (mOsmol/kg) ([1]; 21B12 117 mg/mL, 10 mM Na acetate, pH 4.5): 59 mOsmol/kg
Osmolality (mOsmol/kg) ([1]; 21B12 122 mg/mL, 10 mM Na acetate, pH 5.2 +3% proline): 274 mOsmol/kg
Osmolality (mOsmol/kg) ([1]; 21B12 130 mg/mL, 10 mM Na acetate, pH 5): 59 mOsmol/kg
Osmolality (mOsmol/kg) ([1]; 21B12 148 mg/mL, 10 mM Na acetate, pH 5.2 +3% proline): 301 mOsmol/kg
Osmolality (mOsmol/kg) ([1]; 21B12 […], 10 mM Na acetate, pH 4): 59 mOsmol/kg
Osmolality (mOsmol/kg) ([1]; 21B12 […], 10 mM Na acetate, pH 5.2 +150 mM NaCl): 346 mOsmol/kg
Osmolality (mOsmol/kg) ([1]; 21B12 […], 10 mM Na acetate, pH 5.2 +3% proline): 252 mOsmol/kg
Osmolality (mOsmol/kg) ([1]; 21B12 […], 10 mM Na acetate, pH 5.5): 64 mOsmol/kg
Osmolality (mOsmol/kg) ([1]; 21B12 […], 10 mM Na acetate, pH 5.5 +150 mM methionine and 3% benzyl alcohol): 520 mOsmol/kg
serum cholesterol levels vs patients that are not treated [2]: reduced serum cholesterol levels
serum cholesterol vs patients not receiving the treatment [3]: reduced serum cholesterol
maximum ApoB reduction during the study ([4]; 35 mg QW): 48%
maximum ApoB reduction during the study ([4]; 140 mg and 280 mg Q2W and 420 mg Q4W): 59%
plasma PCSK9 ([4]; at higher doses): undetectable
suppression of PCSK9 ([4]; cohort 3, 140 mg Q2W SC 3 times, preliminary): Near-complete suppression of PCSK9
maximum reduction in LDL-C versus placebo [4, 6]: 73%
mean reduction in LDL-C vs placebo at the end of the dosing interval [4, 6]: 63%
maximum LDL-C reduction versus placebo ([4]; cohort 7 heFH): 70%
maximum reduction of ApoB versus placebo ([4]; cohort 7 heFH): 57%
maximum reduction of non-HDL cholesterol versus placebo ([4]; cohort 7 heFH): 67%
maximum total cholesterol reduction versus placebo ([4]; cohort 7 heFH): 47%
serious AEs ([4]; cohort 7 heFH): No serious AEs were reported
mean reduction in LDL-C vs placebo at the end of the dosing interval ([4]; cohort 7 heFH, 140 mg SC Q2W 3 times, week 6): 65%
mean reduction in ApoB levels vs placebo ([4]; cohort 7 heFH, week 6): up to 47%
mean reduction in lipoprotein a (Lp(a)) vs placebo ([4]; cohort 7 heFH, week 6): 50%
mean reduction in non-HDL cholesterol vs placebo ([4]; cohort 7 heFH, week 6): 61%
mean reduction in serum PCSK9 values vs placebo ([4]; cohort 7 heFH, week 6): 78%
mean reduction in total cholesterol vs placebo ([4]; cohort 7 heFH, week 6): up to 42%
mean ApoB reduction vs placebo at the end of the dosing interval ([4]; cohorts 1-5): up to 54%
mean reduction of PCSK9 levels vs placebo at the end of the dosing interval ([4]; cohorts 1-5): up to 94%
mean LDL-C reduction vs placebo at maximal reduction ([4]; cohorts 1-5, low to moderate doses of statins, 3 biweekly SC doses): up to 81%
mean LDL-C reduction vs placebo at the end of the dosing interval ([4]; cohorts 1-5, week 6 after 3 biweekly SC doses): ≤ 75%
mean LDL-C reduction at the end of the dosing interval ([4]; cohorts 1-5, week 8 after 2 every 4 week SC doses): ≤ 66%
mean Lp(a) reduction vs placebo at the end of the dosing interval ([4]; cohorts 1-6): up to 43%
deaths or serious adverse events ([4]; cohorts 1-6, final results): No deaths or serious adverse events (AEs) were reported; also recorded: no serious AEs
neutralizing antibodies to 21B12 ([4]; cohorts 1-6, final results): No neutralizing antibodies to 21B12 were detected
circulating PCSK9 ([4]; heFH subjects after treatment): undetectable
LDL-C nadir observed within (after initial dosing) ([4]; preliminary, cohorts 1-3, stable moderate doses of statins): ≤ 2 weeks
decrease of circulating LDL-C vs placebo ([4]; repeated SC doses over 6 weeks, low-to-moderate or high-dose statins): up to 81%
neutralizing ability (blocking PCSK9/LDLR) [5]: neutralizing

— patent US20140004122A1, “METHODS FOR TREATING OR PREVENTING CHOLESTEROL RELATED DISORDERS” (AMGEN INC., priority 2011, published 2014)
